Laboratory results as given in IntAct's records for PubMed 25574826.

B1: Lon protease homolog, mitochondrial (Homo sapiens), P36776-1 (parent)
chain: MAASTGYVRLWGAARCWVLRRPMLAAAGGRVPTAAGAWLLRGQRTCDASPPWALWGRGPAIGGQWRGFWEASSRGGGAFSGGEDASEGGAEEGAGGAGGSAGAGEGPVITALTPMTIPDVFPHLPLIAITRNPVFPRFIKIIEVKNKKLVELLRRKVRLAQPYVGVFLKRDDSNESDVVESLDEIYHTGTFAQIHEMQDLGDKLRMIVMGHRRVHISRQLEVEPEEPEAENKHKPRRKSKRGKKEAEDELSARHPAELAMEPTPELPAEVLMVEVENVVHEDFQVTEEVKALTAEIVKTIRDIIALNPLYRESVLQMMQAGQRVVDNPIYLSDMGAALTGAESHELQDVLEETNIPKRLYKALSLLKKEFELSKLQQRLGREVEEKIKQTHRKYLLQEQLKIIKKELGLEKDDKDAIEEKFRERLKELVVPKHVMDVVDEELSKLGLLDNHSSEFNVTRNYLDWLTSIPWGKYSNENLDLARAQAVLEEDHYGMEDVKKRILEFIAVSQLRGSTQGKILCFYGPPGVGKTSIARSIARALNREYFRFSVGGMTDVAEIKGHRRTYVGAMPGKIIQCLKKTKTENPLILIDEVDKIGRGYQGDPSSALLELLDPEQNANFLDHYLDVPVDLSKVLFICTANVTDTIPEPLRDRMEMINVSGYVAQEKLAIAERYLVPQARALCGLDESKAKLSSDVLTLLIKQYCRESGVRNLQKQVEKVLRKSAYKIVSGEAESVEVTPENLQDFVGKPVFTVERMYDVTPPGVVMGLAWTAMGGSTLFVETSLRRPQDKDAKGDKDGSLEVTGQLGEVMKESARIAYTFARAFLMQHAPANDYLVTSHIHLHVPEGATPKDGPSAGCTIVTALLSLAMGRPVRQNLAMTGEVSLTGKILPVGGIKEKTIAAKRAGVTCIVLPAENKKDFYDLAAFITEGLEVHFVEHYREIFDIAFPDEQAEALAVER
partner: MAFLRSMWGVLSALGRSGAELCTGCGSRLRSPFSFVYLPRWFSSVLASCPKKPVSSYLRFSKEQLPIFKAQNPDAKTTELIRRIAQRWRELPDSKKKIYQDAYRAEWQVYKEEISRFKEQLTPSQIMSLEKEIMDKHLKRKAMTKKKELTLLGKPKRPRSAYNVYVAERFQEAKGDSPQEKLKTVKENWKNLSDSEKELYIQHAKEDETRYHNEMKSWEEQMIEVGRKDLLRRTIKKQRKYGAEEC

Variants of: B1
Conditions: with tfam_human TFAM

Variant | effect of a mutation on the interaction
P676S | with no effect
R721G | with no effect
